The test deals with T1, Rat EphA2, biotinylated (in house) (Rat).
T1 construct: SPR target captured on streptavidin; also called Rat EphA2 (SPR)
Briefly: SPR (Biacore 3000), biotinylated rat EphA2 on streptavidin, 1:1 model.

*1 amine or outer side, *2 acyl side, *3 side chain or, on linkers, in order; H or OH if unused. Bridges are numbered along the chain shown (N, C = ends). Primed or numbered codes have the meaning given here. Where no end group is shown, it is not given here. [ ]: non-standard residue; d: D form. Sar10″ = ten sarcosine residues, CN(CC(=O)N(C)CC(=O)N(C)CC(=O)N(C)CC(=O)N(C)CC(=O)[*:2])C(=O)CN(C)C(=O)CN(C)C(=O)CN(C)C(=O)CN(C)C(=O)CN(C)[*:1]; TATA = O=C(CC[*:1])N1CN(C(=O)CC[*:2])CN(C(=O)CC[*:3])C1; Hyp = O=C(O)[C@@H]1C[C@@H](O)CN1; hArg = N=C(N)NCCCC[C@H](N)C(=O)O; βAla = NCCC(=O)O

T1 sequence (Q03145 other isoform, or with tags, fused parts or gaps): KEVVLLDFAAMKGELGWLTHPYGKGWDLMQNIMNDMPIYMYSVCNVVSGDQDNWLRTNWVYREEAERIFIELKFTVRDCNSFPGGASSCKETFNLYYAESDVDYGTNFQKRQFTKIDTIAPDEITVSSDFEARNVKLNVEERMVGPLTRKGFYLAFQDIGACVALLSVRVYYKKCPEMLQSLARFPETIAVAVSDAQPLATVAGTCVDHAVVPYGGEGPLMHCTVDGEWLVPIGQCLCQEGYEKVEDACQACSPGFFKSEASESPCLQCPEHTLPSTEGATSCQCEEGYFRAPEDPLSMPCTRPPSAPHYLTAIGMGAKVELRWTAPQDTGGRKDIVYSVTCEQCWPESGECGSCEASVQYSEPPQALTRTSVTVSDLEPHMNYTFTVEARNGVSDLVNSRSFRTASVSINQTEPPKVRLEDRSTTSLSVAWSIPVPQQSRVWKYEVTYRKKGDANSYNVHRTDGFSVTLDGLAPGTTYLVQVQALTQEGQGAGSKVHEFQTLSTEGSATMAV

B1: BCY6136 (peptide)
peptide: [βAla][Sar10″]A[hArg]DC[Hyp]LVNPLCLHP[dD]W[hArg]C-NH2
modifications: linker 6-13-20 via TATA (inferred); also: conjugated to ValCit-MMAE linker/toxin, attachment site not given here
notes: also called BT5528
For the molecule B1, the affinity, expressed as Kd, was 2.96 nM and the t1/2 turned out to be 12.6 min.

B2: BCY6173 (peptide)
peptide: [βAla][Sar10″]A[hArg]DC[Hyp]LVNPLCLHP[dD]W[hArg]C-NH2
modifications: linker 6-13-20 via TATA (inferred); also: conjugated to DM1-SS(SO3H)- linker/toxin, attachment site not given here
B2 gave a Kd of 1.1 nM and a t1/2 of 12 min.

The record behind these values is US20230144799A1 (published 2023).
